For the test, the target named is citrullinated fibronectin N-terminal 30 kDa fragment (treated with PAD2 or PAD4). As to the kind of experiment: ELISA; FN N-terminal 30 kDa fragment coated o/n on 96-well DNA-BIND plates (3 µg/cm^3, +4 °C), blocked with BSA, citrullinated on the plate by PAD2 or PAD4 (2.4 U/ml, o/n, +37 °C) or left as control; integrin αVβ3 5 µg/ml for 1 h at room temperature in Delfia assay buffer; detected with anti-αV antibody L230 and Eu-labelled anti-mouse antibody, time-resolved fluorescence; BSA wells as background.

For the substance “recombinant integrin αVβ3 ectodomain (from UniProt P06756 31-992; P05106 27-718) (receptor)”, the reduction of binding against the control FN fragment was greater than 50%.
